Results: patent US20240158497A1 (published 2024)

T1: Macaca Fascicularis GP130 extracellular domain expressed with a C-terminal myc-myc-hexahistidine tag (Macaca fascicularis, UniProt P40189 23-619 (human entry))
T1 construct: also called mfGP130-MMH; mfGP130-mmH
T1 chain: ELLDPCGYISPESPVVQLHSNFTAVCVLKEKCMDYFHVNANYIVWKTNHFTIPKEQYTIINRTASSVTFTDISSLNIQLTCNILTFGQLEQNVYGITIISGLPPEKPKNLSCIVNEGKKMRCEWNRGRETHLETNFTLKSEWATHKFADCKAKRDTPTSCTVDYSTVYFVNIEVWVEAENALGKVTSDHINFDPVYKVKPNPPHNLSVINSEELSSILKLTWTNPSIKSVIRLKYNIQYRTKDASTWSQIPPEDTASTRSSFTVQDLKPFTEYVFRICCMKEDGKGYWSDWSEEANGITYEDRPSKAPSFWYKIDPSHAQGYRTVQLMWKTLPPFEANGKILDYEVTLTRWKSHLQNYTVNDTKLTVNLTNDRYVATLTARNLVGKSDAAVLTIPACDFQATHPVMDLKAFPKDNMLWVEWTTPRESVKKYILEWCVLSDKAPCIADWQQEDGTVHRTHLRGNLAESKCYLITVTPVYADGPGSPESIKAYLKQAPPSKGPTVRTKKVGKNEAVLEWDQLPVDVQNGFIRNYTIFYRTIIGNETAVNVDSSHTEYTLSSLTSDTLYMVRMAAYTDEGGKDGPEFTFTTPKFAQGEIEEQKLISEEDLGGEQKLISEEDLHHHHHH

B1: bsAb21236D (bispecific antibody, V domains shown)
VH 1: QVQLQESGPGLVKPSQTLSLTCTVSGGSISSGGDYWSWIRQLPGKGLEWIGYIYYSGSAYYNPSLKSRGTISIDTSKNQFSLKLTSVTAADTAVYFCVKLRFLEWFLGGWFGPWGQGTLVTVSS
VH 2: QVQLVESGGGLVKPGGSLRLSCAASGFTFSDYYMTWIRQTPGKGLDWVSYISSSGTNKYNADSVKGRFTISRDNAKNSLYLQMNSLRAEDTAVYYCVRDPPWGMDVWGQGTTVTVSS
VL: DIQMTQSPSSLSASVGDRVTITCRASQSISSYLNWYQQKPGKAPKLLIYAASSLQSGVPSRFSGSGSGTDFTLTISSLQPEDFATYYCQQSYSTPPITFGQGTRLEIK
notes: common light chain; also called H4H21236D
B2: bsAb21237D (bispecific antibody, V domains shown)
VH 1: EVQLVESGGGLVQPGGSLRLSCAASGFTFSNYGMTWVRQAPGKGLEWVSAITGGGGSTYYSNSVKGRFTISRDNSKNTVYLRMNSVRAEDTAVYYCAKYKWNFVDDWGQGTTVTVSS
VH 2: B1 VH 2
VL: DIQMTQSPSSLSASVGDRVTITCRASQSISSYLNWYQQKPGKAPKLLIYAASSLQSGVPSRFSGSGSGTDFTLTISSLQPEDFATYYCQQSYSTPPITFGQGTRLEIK
notes: common light chain; also called H4H21237D
B3: bsAb19139D (bispecific antibody, V domains shown)
VH 1: QVQLVESGGGVVQPGRSLRLSCTASGFTFSSYAMYWVRQAPGKGLEWVSVIYYDGSYKYYADSVKGRFTISRDNSKNTLYLQMDSLRAEDTAVYYCASYNWNYWYFDFWGRGTLVTVSS
VH 2: QVQLVESGGGVVQPGGSLRLSCAASGFTFSTYDIHWVRQAPGKGLEWVAVISFDGSNRNYGDSVKGRFTISRDNSDNTLFLEMNNLRFEDTAVYYCAKEGYGVDFQHWGQGTLVTVSS
VL: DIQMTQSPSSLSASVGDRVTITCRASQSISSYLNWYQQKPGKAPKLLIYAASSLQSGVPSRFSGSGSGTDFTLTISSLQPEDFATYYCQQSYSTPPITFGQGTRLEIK
notes: LEPR x GP130 bispecific with common light chain
B4: bsAb19147D (bispecific antibody, V domains shown)
VH 1: B3 VH 1
VH 2: EVQLVESGGGLVQPGGSLRLSCTASGFTFSNYAIFWVRQAPGKGLEYVSGISNNGVTKYYADSVRDRFTISRDNSRNTVSIQMDSLRTEDMAVYYCARENWGSDDGFDIWGQGTMVTVSS
VL: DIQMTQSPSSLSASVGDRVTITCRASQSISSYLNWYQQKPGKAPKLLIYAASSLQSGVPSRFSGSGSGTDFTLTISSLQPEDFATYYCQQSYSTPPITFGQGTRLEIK
notes: as for B3
B5: bsAb19142D (bispecific antibody, V domains shown)
VH 1: B3 VH 1
VH 2: EVQLVESGGGLVQPGGSLRLSCAASGLTFSSYEMNWVRQAPGKGLEWVSHISSAGSTKYYADSVKGRFTISRDNAKNSLFLQMNSLRAEDTAIYYCAGYNYAYYYFGVDVWGQGTTVTVSS
VL: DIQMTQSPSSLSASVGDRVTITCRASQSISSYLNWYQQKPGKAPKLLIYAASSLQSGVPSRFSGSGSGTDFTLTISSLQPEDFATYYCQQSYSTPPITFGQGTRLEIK
notes: as for B3
B6: bsAb19140D (bispecific antibody, V domains shown)
VH 1: B3 VH 1
VH 2: QVQLQESGPGLVKPSETLSLTCTVSGGSISNYYWTWIRQPPGKGLEWIGHISNSGTTNYNPSLKSRVTISVDTSKNQFSLKLTSVTAADTAVYYCARLPLGIAAVDTDYYYYFGMDVWGQGTTVTVSS
VL: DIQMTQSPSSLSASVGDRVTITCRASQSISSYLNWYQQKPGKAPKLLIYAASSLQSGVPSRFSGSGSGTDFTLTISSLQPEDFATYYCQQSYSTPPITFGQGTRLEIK
notes: as for B3
B7: bsAb19757D (bispecific antibody, V domains shown)
VH 1: EVQLVESGGGLVQPGGSLRLSCVASGFTFNKYDMHWVRQTTGKGLEWVSGIDTDGDTYYPGSVKGRFTISRENAENSLYLQMNGLRVGDTAVYYCARWPWSGFYGAFDIWGQGTMVTVSS
VH 2: EVQLVESGGGVVRPGGSLRLSCTASGFTFDDYGMSWVRQAPGKGLEWVSGINWNGGRTEYADAVKGRFIISRDNAKNSLYLQMNSLRAEDTALYFCARTELRWDYWGQGTLVTVSS
VL: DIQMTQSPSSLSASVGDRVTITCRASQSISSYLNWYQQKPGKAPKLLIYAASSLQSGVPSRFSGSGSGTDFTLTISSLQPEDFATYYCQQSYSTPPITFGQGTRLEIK
notes: common light chain
B8: bsAb19758D (bispecific antibody, V domains shown)
VH 1: B7 VH 1
VH 2: EVQLVESGGGLVQSGGSLRLSCAASGFTFSRYEMNWVRQAPGKGLEWVAYISNTGTTRDYSDSVKGRFTISRDNAKNSLYLQMSSLRVEDTAVYYCVREKFSGTSDWFDPWGQGTLVTVSS
VL: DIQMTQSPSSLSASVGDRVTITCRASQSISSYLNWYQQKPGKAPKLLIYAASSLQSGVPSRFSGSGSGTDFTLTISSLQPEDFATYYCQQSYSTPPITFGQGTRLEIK
notes: common light chain
B9: bsAb19141D (bispecific antibody, V domains shown)
VH 1: B3 VH 1
VH 2: B7 VH 2
VL: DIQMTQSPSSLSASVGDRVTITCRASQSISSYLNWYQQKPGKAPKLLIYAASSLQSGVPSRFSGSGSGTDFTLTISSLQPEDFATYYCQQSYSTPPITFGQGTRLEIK
notes: as for B3

Assays:
[1] = target: T2, Macaca Fascicularis LEPR extracellular domain expressed with a C-terminal myc-myc-hexahistidine tag (Macaca fascicularis, UniProt Q9MYL0 22-837 (rhesus entry)); assay: SPR Biacore 4000, bsAb captured by anti-human Fc, 37 C
T2 construct: Monomeric reagent; the whole entry is the construct with its tag; also called mfLEPR-MMH
Experimental: (§1) Equilibrium dissociation constants (KD values) for LEPR and GP130 binding to purified anti-LEPR/GP130 bispecific antibodies were determined using a real-time surface plasmon resonance biosensor using a Biacore 4000 instrument. All binding studies were performed in 10 mM HEPES, 150 mM NaCl, 3 mM EDTA, and 0.05% v/v Surfactant Tween-20, pH 7.4 (HBS-ET) running buffer at 25° C. and 37° C. The Biacore sensor surface was first derivatized by amine coupling with a monoclonal mouse anti-human Fc antibody (GE, #BR-1008-39) to capture anti-LEPR/GP130 bispecific antibodies. […] Different concentrations of LEPR or GP130 reagents were first prepared in HBS-ET running buffer (100 nM-3.7 nM; 3-fold serial dilution) and were injected over anti-human Fc captured anti-LEPR/GP130 bispecific antibody surface for 4 minutes at a flow rate of 30 μL/minute, while the dissociation of bispecific antibody bound LEPR or GP130 reagent was monitored for 10 minutes in HBS-ET running buffer. Kinetic association (kₐ) and dissociation (kd) rate constants were determined by fitting the real-time binding sensorgrams to a 1:1 binding model with mass transport limitation using Scrubber 2.0c curve-fitting software. Binding dissociation equilibrium constants (KD) and dissociative half-lives (t ½) were calculated from the kinetic rate constants as: […]

[2] = target: T3, human LEPR extracellular domain expressed with a C-terminal myc-myc-hexahistidine tag (human, UniProt P48357 22-839); assay: as above
T3 construct: Monomeric reagent; the whole entry is the construct with its tag; also called hLEPR-MMH; hLEPR.mmh
Experimental: as §1

[3] = target: T2, Macaca Fascicularis LEPR extracellular …; assay: SPR Biacore 4000, bsAb captured by anti-human Fc, 25 C
Experimental: as §1

[4] = target: T3, human LEPR extracellular domain …; assay: as above
Experimental: as §1

[5] = target: T4, human GP130 extracellular domain expressed with a C-terminal myc-myc-hexahistidine tag (human, UniProt P40189 23-619); assay: SPR, bsAb captured by anti-hFc, 25C
T4 construct: also called hGP130-MMH; hGP130-mmH
Experimental: as §1

[6] = target: T1, Macaca Fascicularis GP130 extracellular …; assay: SPR, bsAb captured by anti-hFc, 25C
Experimental: as §1

[7] = target: T4, human GP130 extracellular domain …; assay: SPR, bsAb captured by anti-hFc, 37C
Experimental: as §1

[8] = target: T1, Macaca Fascicularis GP130 extracellular …; assay: SPR, bsAb captured by anti-hFc, 37C
Experimental: as §1

| Binder | 100 nM mfLEPR-MMH Bound (RU) [1] | 100 nM hLEPR-MMH Bound (RU) [2] | Kd [2] | koff [2] | kon [2] | t½ [2] | 100 nM mfLEPR-MMH Bound (RU) [3] | Kd [3] | koff [3] | kon [3] | Kd [4] | koff [4] | kon [4] | t½ [4] | 100 nM hLEPR-MMH Bound (RU) [4] | 100 nM hGP130-MMH Bound (RU) [5] | 100 nM mfGP130-MMH Bound (RU) [6] | 100 nM hGP130-MMH Bound (RU) [7] | 100 nM mfGP130-MMH Bound (RU) [8] | Kd [5] | also measured |
| --- | --- | --- | --- | --- | --- | --- | --- | --- | --- | --- | --- | --- | --- | --- | --- | --- | --- | --- | --- | --- | --- |
| B1 | 9 RU | 5 RU | 726 nM | 0.0131 s⁻¹ | 18000 M⁻¹ s⁻¹ | 0.9 min | 12 RU | 83.4 nM | 0.00482 s⁻¹ | 57900 M⁻¹ s⁻¹ | 106 nM | 0.00372 s⁻¹ | 35100 M⁻¹ s⁻¹ | 3.1 min | – | – | – | – | – | – | Kd [1]: 284 nM; koff [1]: 0.0176 s⁻¹; kon [1]: 61900 M⁻¹ s⁻¹; t½ [1]: 0.7 min; t½ [3]: 2.4 min |
| B2 | 27 RU | 15 RU | 280 nM | 0.00442 s⁻¹ | 15800 M⁻¹ s⁻¹ | 2.6 min | 16 RU | 37.8 nM | 0.00116 s⁻¹ | 30800 M⁻¹ s⁻¹ | 78.7 nM | 0.00121 s⁻¹ | 15300 M⁻¹ s⁻¹ | – | 11 RU | – | – | – | – | – | Kd [1]: 151 nM; koff [1]: 0.00424 s⁻¹; kon [1]: 28100 M⁻¹ s⁻¹; t½ [1]: 2.7 min |
| B3 | – | – | – | – | – | – | – | – | – | – | – | – | – | – | – | 6 RU | 6 RU | 3 RU | 2 RU | – | binding result [7]: no binding (tested: 100 nM); binding result [8]: no binding (tested: 100 nM) |
| B4 | – | – | – | – | – | – | – | – | – | – | – | – | – | – | – | – | 5 RU | – | 3 RU | – | binding result [8]: no binding (tested: 100 nM) |
| B5 | – | – | – | – | – | – | – | – | – | – | – | – | – | – | – | 31 RU | 28 RU | 37 RU | 33 RU | 19 nM | koff [5]: 0.00329 s⁻¹; kon [5]: 173000 M⁻¹ s⁻¹; t½ [5]: 4 min; Kd [6]: 31.2 nM; koff [6]: 0.00374 s⁻¹; kon [6]: 120000 M⁻¹ s⁻¹; t½ [6]: 3.1 min; Kd [7]: 17.5 nM; koff [7]: 0.00622 s⁻¹; kon [7]: 356000 M⁻¹ s⁻¹; t½ [7]: 1.9 min; Kd [8]: 21.6 nM; koff [8]: 0.00715 s⁻¹; kon [8]: 332000 M⁻¹ s⁻¹; t½ [8]: 1.6 min |
| B6 | – | – | – | – | – | – | – | – | – | – | – | – | – | – | – | 23 RU | 20 RU | 19 RU | 14 RU | 105 nM | koff [5]: 0.0477 s⁻¹; kon [5]: 455000 M⁻¹ s⁻¹; t½ [5]: 0.2 min; Kd [6]: 136 nM; koff [6]: 0.0546 s⁻¹; kon [6]: 402000 M⁻¹ s⁻¹; t½ [6]: 0.2 min; Kd [7]: 144 nM; koff [7]: 0.12 s⁻¹; kon [7]: 829000 M⁻¹ s⁻¹; t½ [7]: 0.1 min; Kd [8]: 183 nM; koff [8]: 0.146 s⁻¹; kon [8]: 797000 M⁻¹ s⁻¹; t½ [8]: 0.1 min |
| B7 | 7 RU | 81 RU | 19.1 nM | 0.000625 s⁻¹ | 32800 M⁻¹ s⁻¹ | 18 min | 7 RU | – | – | – | 7.85 nM | 0.000162 s⁻¹ | 20700 M⁻¹ s⁻¹ | 71 min | 57 RU | – | – | – | – | – | – |
| B8 | 5 RU | 73 RU | 20.6 nM | 0.000663 s⁻¹ | 32300 M⁻¹ s⁻¹ | 17 min | 9 RU | 583 nM | 0.0225 s⁻¹ | 38600 M⁻¹ s⁻¹ | 10.3 nM | 0.000163 s⁻¹ | 15900 M⁻¹ s⁻¹ | 71 min | 54 RU | – | – | – | – | – | t½ [3]: 0.5 min |
| B9 | – | – | – | – | – | – | – | – | – | – | – | – | – | – | – | 15 RU | 15 RU | 15 RU | 15 RU | 219 nM | koff [5]: 0.0232 s⁻¹; kon [5]: 106000 M⁻¹ s⁻¹; t½ [5]: 0.5 min; Kd [6]: 184 nM; koff [6]: 0.0207 s⁻¹; kon [6]: 112000 M⁻¹ s⁻¹; t½ [6]: 0.6 min; Kd [7]: 347 nM; koff [7]: 0.0621 s⁻¹; kon [7]: 179000 M⁻¹ s⁻¹; t½ [7]: 0.2 min; Kd [8]: 212 nM; koff [8]: 0.0513 s⁻¹; kon [8]: 242000 M⁻¹ s⁻¹; t½ [8]: 0.2 min |
